For experiment [1], the system named is epithelial Na^+-channel, α-ENaC, β-ENaC, and γ-ENaC (rENaC). As to the kind of experiment: Dual-electrode voltage clip, amiloride-sensitive Na+-current in oocytes expressing ENaC. In kind it is cell-based, Xenopus laevis. Particulars: for activation of the Na^+-channel rENaC by hsgk2 and hsgk3: kinase inhibitor; for activation of the Na^+-channel rENaC by hsgk2 and hsgk3 / amiloride-inhibitable current, Iamil, through the Na^+-channel, rENaC: FIG. 1; for Na^+-current (INa): oocytes injected with α-ENaC, β-ENaC, and γ-ENaC plus kinase, mean ± SEM, n=7; for amiloride-inhibitable current, Iamil, through the Na^+-channel, rENaC: coexpression with kinase. As for the experimental part: (§1) Each of the oocytes involved was injected with 1 ng cRNA from α-ENaC, β-ENaC, and γ-ENaC, Kv1.3, or minK, both with and without simultaneous injection of the kinases hsgk1, hsgk2, and hsgk3. Dual-electrode voltage-clip and current-clip experiments could be undertaken 2 to 4 days following injection. Na^+-currents (in the case of ENaC) and K^+-currents (in the case of Kv1.3 and minK) were filtered at 10 Hz and recorded using a recorder. The experiments were normally conducted on the second day following cRNA-injection. The bath solution contained 96 mM NaCl, 2 mM KCl, 1.8 mM CaCl2, 1 mM MgCl2, and 5 mM HEPES at a pH of 7.5 and a holding potential of −80 mV. In all experiments, bath pH was set by titration with HCl or NaOH. Bath-liquid flow rate was set to 20 ml/min, which provided for a complete change of solution within 10 to 15 seconds. All data were output in the form of arithmetic means±SEM.
(§2) In order to investigate the effects of hsgk1, hsgk2, or hsgk3, the mRNA of the respective kinases, together with the mRNA of the epithelial Na^+-channel, α-ENaC, β-ENaC, and γ-ENaC, or the voltage-dependent K^+-channel, Kv1.3, or the minK-channel, were injected into Xenopus oocytes and the amiloride-sensitive Na^+-current, INa, and voltage-activated K^+-current, IK, subsequently determined.

Another experiment relates to hsgk2 and hsgk3. The experiment in a line: Kinase inhibitors on hsgk stimulation of channel activity in oocytes. Format: cell-based, Xenopus laevis. Particulars: protein-kinase inhibitor added; Table 1, FIGS. 1 and 2. The method, then: as §1, §2
Experiment [2] relates to human embryonic kidney cells (HEK-cells). The experiment in a line: Survival of HEK-cells after extraction of fetal calf serum. In kind it is cell-based. The note with it: FCS extracted, FIG. 3. The method, then:
According to FIG. 3, extracting fetal calf serum (FCS) from human embryonic kidney cells (HEK-cells) (Lewis, et al (1984); Phillips, et al (1982)) reduces the total number of cells present due to cell mortality, as may be seen by comparing the black bars to the dotted bars, where FIG. 3 depicts the situations after 24 hours and 48 hours, respectively. This reduction is lessened by the insulin-like growth factor (IGF1), represented by the white bars. The effect of IGF1 is eliminated by the simultaneous inhibition of K^+-channels using margatoxin (MT), represented by the hatched bars. […] The activation of the Kv1.3-channel mediated by sgk2 and sgk3 thus has an antiapoptotic effect, and lack of an sgk2-effect and sgk3-effect would thus cause an increase in cell mortality, as occurs in the case of, for example, neurodegeneration. Conversely, activators of sgk2 and sgk3 may be employed for preventing apoptotic cell death in the case of neurodegeneration. Since Kv1.3 also plays a major role in regulating lymphocyte proliferation and lymphocyte function, inhibitors or activators of these kinases may be employed for affecting the immune system in the case of, e.g., autoimmune diseases or immune deficiency.

The next experiment deals with minK-channel. The experiment in a line: Dual-electrode voltage clip, K+-current in oocytes expressing minK. In kind it is cell-based, Xenopus laevis. Particulars: oocytes injected with minK plus kinase; mean ± SEM, n=7. As for the experimental part: as §1, §2
Experiment [3] concerns voltage-dependent K^+-channel, Kv1.3. As to the kind of experiment: Dual-electrode voltage clip, voltage-activated K+-current in oocytes expressing Kv1.3. In kind it is cell-based, Xenopus laevis. The note with it: oocytes injected with Kv1.3 plus kinase; mean ± SEM, n=7. The method, then:
as §1, §2

In the case of `COc1ccc2c(c[n+](C)c3c4cc5c(cc4ccc23)OCO5)c1OC` [chelerythrine, reference compound], the “activation of the Na^+-channel rENaC by hsgk2 and hsgk3” value in experiment [1] is “inhibit activation of the Na^+-channel”. Moreover, in the experiment with hsgk2 and hsgk3, the “stimulating effects of hsgk on ENaC-activity, Kv1.3-activity and minK-activity” value is given as “totally prevented”.

Turning to `CN[C@@H]1C[C@H]2O[C@@](C)([C@@H]1OC)n1c3ccccc3c3c4c(c5c6ccccc6n2c5c31)C(=O)NC4` [staurosporine, reference compound], in experiment [1], the “activation of the Na^+-channel rENaC by hsgk2 and hsgk3” value is “inhibit activation of the Na^+-channel”. In addition, the “stimulating effects of hsgk on ENaC-activity, Kv1.3-activity and minK-activity” value in the experiment with hsgk2 and hsgk3 is “totally prevented”.

With IGF1: insulin-like growth factor, the “reduction of total number of cells due to cell mortality” value in experiment [2] (after 24 hours and 48 hours) is on record as “lessened”.

Turning to “margatoxin (TIINVKCTSPKQCLPPCKAQFGQSAGAKCMNGKCKCYPH; UniProt P40755 1-39, looked up) [reference compound]”, the “effect of IGF1 on cell-number reduction” value in experiment [2] (IGF1 plus simultaneous inhibition of K^+-channels, 24 and 48 hours) is reported as “eliminated”.

B1: hsgk1: human serum-and-glucocorticoid-dependent kinase 1, coexpressed in oocytes by mRNA injection (protein, UniProt O00141 1-431, looked up)
Serine/threonine-protein …: MTVKTEAAKGTLTYSRMRGMVAILIAFMKQRRMGLNDFIQKIANNSYACKHPEVQSILKISQPQEPELMNANPSPPPSPSQQINLGPSSNPHAKPSDFHFLKVIGKGSFGKVLLARHKAEEVFYAVKVLQKKAILKKKEEKHIMSERNVLLKNVKHPFLVGLHFSFQTADKLYFVLDYINGGELFYHLQRERCFLEPRARFYAAEIASALGYLHSLNIVYRDLKPENILLDSQGHIVLTDFGLCKENIEHNSTTSTFCGTPEYLAPEVLHKQPYDRTVDWWCLGAVLYEMLYGLPPFYSRNTAEMYDNILNKPLQLKPNITNSARHLLEGLLQKDRTKRLGAKDDFMEIKSHVFFSLINWDDLINKKITPPFNPNVSGPNDLRHFDPEFTEEPVPNSIGKSPDSVLVTASVKEAAEAFLGFSYAPPTDSFL
Regarding B1, in the experiment on minK-channel, the “K^+-current (IK), MinK” value amounted to 1.16 ± 0.11 μA. Besides, the “Na^+-current (INa)” value in experiment [1] is reported as 5.9 ± 1.0 μA. The “K^+-current (IK), Kv1.3” value in experiment [3] came out at 8.4 ± 1.8 μA.

B2: hsgk3: human serum-and-glucocorticoid-dependent kinase 3, coexpressed in oocytes by mRNA injection (protein, UniProt Q96BR1 1-496, looked up)
Serine/threonine-protein …: MQRDHTMDYKESCPSVSIPSSDEHREKKKRFTVYKVLVSVGRSEWFVFRRYAEFDKLYNTLKKQFPAMALKIPAKRIFGDNFDPDFIKQRRAGLNEFIQNLVRYPELYNHPDVRAFLQMDSPKHQSDPSEDEDERSSQKLHSTSQNINLGPSGNPHAKPTDFDFLKVIGKGSFGKVLLAKRKLDGKFYAVKVLQKKIVLNRKEQKHIMAERNVLLKNVKHPFLVGLHYSFQTTEKLYFVLDFVNGGELFFHLQRERSFPEHRARFYAAEIASALGYLHSIKIVYRDLKPENILLDSVGHVVLTDFGLCKEGIAISDTTTTFCGTPEYLAPEVIRKQPYDNTVDWWCLGAVLYEMLYGLPPFYCRDVAEMYDNILHKPLSLRPGVSLTAWSILEELLEKDRQNRLGAKEDFLEIQNHPFFESLSWADLVQKKIPPPFNPNVAGPDDIRNFDTAFTEETVPYSVCVSSDYSIVNASVLEADDAFVGFSYAPPSEDLFL
For the molecule B2, the “K^+-current (IK), MinK” value in the experiment on minK-channel is 1.1 ± 0.11 μA. Further, in experiment [1], the “amiloride-inhibitable current, Iamil, through the Na^+-channel, rENaC” value was “increased significantly” and the “Na^+-current (INa)” value came to 4.5 ± 0.8 μA. In addition, the “K^+-current (IK), Kv1.3” value in experiment [3] is recorded as 8.2 ± 0.7 μA.

B3: hsgk2: human serum-and-glucocorticoid-dependent kinase 2, coexpressed in oocytes by mRNA injection (protein, UniProt Q9HBY8 1-367, looked up)
Serine/threonine-protein …: MNSSPAGTPSPQPSRANGNINLGPSANPNAQPTDFDFLKVIGKGNYGKVLLAKRKSDGAFYAVKVLQKKSILKKKEQSHIMAERSVLLKNVRHPFLVGLRYSFQTPEKLYFVLDYVNGGELFFHLQRERRFLEPRARFYAAEVASAIGYLHSLNIIYRDLKPENILLDCQGHVVLTDFGLCKEGVEPEDTTSTFCGTPEYLAPEVLRKEPYDRAVDWWCLGAVLYEMLHGLPPFYSQDVSQMYENILHQPLQIPGGRTVAACDLLQSLLHKDQRQRLGSKADFLEIKNHVFFSPINWDDLYHKRLTPPFNPNVTGPADLKHFDPEFTQEAVSKSIGCTPDTVASSSGASSAFLGFSYAPEDDDILDC
B3: the “K^+-current (IK), MinK” value in the experiment with minK-channel amounted to 0.97 ± 0.1 μA. Further, in experiment [1], the “amiloride-inhibitable current, Iamil, through the Na^+-channel, rENaC” value is “increased significantly” and the “Na^+-current (INa)” value stood at 9.4 ± 1.7 μA. In experiment [3], the “K^+-current (IK), Kv1.3” value is listed as 6.5 ± 0.6 μA.

For the origin of these results see US20040038882A1, “Sgk2 and sgk3 used as diagnostic and therapeutic targets” (priority 2000, published 2004).
